Laboratory results taken from doi:10.1101/2023.03.17.532973 (bioRxiv, 2023).

T1: SHMT1 (cytosolic serine hydroxymethyltransferase) WT (Homo sapiens, UniProt P34896 1-483)
T1 sequence: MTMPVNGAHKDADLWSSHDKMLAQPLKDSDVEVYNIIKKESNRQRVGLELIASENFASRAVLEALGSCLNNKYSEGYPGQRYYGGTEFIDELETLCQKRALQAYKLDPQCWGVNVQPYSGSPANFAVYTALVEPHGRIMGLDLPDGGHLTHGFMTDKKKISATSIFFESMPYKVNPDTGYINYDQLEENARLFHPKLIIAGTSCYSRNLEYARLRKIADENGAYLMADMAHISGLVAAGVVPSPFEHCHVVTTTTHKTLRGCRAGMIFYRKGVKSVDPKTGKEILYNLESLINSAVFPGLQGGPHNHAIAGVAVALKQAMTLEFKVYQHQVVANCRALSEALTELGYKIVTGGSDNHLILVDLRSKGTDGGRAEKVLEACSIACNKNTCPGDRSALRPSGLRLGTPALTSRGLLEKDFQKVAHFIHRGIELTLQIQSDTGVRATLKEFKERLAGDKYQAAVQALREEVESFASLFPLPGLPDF

B1: human cytosolic serine hydroxymethyltransferase (SHMT1), wild type (enzyme)
chain: DADLWSSHDKMLAQPLKDSDVEVYNIIKKESNRQRVGLELIASENFASRAVLEALGSCLNNKYSEGYPGQRYYGGTEFIDELETLCQKRALQAYKLDPQCWGVNVQPYSGSPANFAVYTALVEPHGRIMGLDLPDGGHLTHGFMTDKKKISATSIFFESMPYKVNPDTGYINYDQLEENARLFHPKLIIAGTSCYSRNLEYARLRKIADENGAYLMADMAHISGLVAAGVVPSPFEHCHVVTTTTHKTLRGCRAGMIFYRKGVKSVDPKTGKEILYNLESLINSAVFPGLQGGPHNHAIAGVAVALKQAMTLEFKVYQHQVVANCRALSEALTELGYKIVTGGSDNHLILVDLRSKGTDGGRAEKVLEACSIACNKNTCPGDRSALRPSGLRLGTPALTSRGLLEKDFQKVAHFIHRGIELTLQIQSDTGVRATLKEFKERLAGDKYQAAVQALREEVESFASLFPLPGL

Experiments:
cryo-EM structure = target: the molecule itself; experiment: cryo-EM structure
[1] = target: T1, SHMT1 (cytosolic serine …); experiment: EMSA

| Binder | stoichiometry N (cryo-EM structure) | binding result [1] |
| --- | --- | --- |
| B1 | 4 |  |
| UGUGGCCUUUUGGGAAUUGUAGUUCGCCCACUCACCGCUUUUUUCUUUAU (structured_RNA) [UTR2 1-50 Rv (reverse complement)] |  | binds |
